Data taken from patent US20210238279A1 (Johns Hopkins, published 2021).
Substitutions are numbered along the chain they refer to.

T1: human ZnT8-His (human, UniProt Q8IWU4-2 1-320, limits assumed)
T1 construct: Over-expressed in HEK293 cells, solubilized with DDM and immobilized on Ni-NTA plates (native or unfolded with 2% SDS), or SDS-denatured on immunoblots; also called human ZnT8 with C-terminal poly-histidine tag; not shown: C-terminal poly-histidine tag
T1 sequence (looked up): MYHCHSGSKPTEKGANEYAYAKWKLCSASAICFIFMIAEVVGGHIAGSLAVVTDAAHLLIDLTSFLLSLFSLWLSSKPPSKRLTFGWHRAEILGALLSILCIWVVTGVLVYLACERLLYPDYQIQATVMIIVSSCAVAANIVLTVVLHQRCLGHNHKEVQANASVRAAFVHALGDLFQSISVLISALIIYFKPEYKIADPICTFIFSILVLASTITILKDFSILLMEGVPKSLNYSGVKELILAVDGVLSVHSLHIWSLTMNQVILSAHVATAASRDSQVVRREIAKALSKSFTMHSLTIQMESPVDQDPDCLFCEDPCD

T2: human ZnT10 with C-terminal FLAG tag (human, UniProt Q6XR72 1-485, limits assumed)
T2 construct: Commercial HEK293 lysate (Origene), SDS-denatured on immunoblots; not shown: C-terminal FLAG octapeptide
T2 sequence (looked up): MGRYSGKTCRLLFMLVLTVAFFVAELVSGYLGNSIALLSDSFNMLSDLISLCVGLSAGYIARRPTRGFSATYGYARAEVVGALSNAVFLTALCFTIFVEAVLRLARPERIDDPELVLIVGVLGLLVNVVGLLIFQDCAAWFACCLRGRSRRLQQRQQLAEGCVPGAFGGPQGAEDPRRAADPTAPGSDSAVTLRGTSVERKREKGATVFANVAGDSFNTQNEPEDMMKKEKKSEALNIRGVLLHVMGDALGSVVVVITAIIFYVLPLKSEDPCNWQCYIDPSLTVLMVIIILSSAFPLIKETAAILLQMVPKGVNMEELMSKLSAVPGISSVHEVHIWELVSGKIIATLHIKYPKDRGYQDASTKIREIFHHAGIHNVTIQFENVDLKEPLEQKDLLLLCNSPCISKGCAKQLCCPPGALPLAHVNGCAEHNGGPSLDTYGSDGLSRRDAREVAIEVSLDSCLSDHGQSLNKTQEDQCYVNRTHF

T3: human ZnT2 with C-terminal FLAG tag (human, UniProt Q9BRI3 1-372, limits assumed)
T3 construct: Commercial HEK293 lysate (Origene), SDS-denatured on immunoblots; not shown: C-terminal FLAG octapeptide
T3 sequence (looked up): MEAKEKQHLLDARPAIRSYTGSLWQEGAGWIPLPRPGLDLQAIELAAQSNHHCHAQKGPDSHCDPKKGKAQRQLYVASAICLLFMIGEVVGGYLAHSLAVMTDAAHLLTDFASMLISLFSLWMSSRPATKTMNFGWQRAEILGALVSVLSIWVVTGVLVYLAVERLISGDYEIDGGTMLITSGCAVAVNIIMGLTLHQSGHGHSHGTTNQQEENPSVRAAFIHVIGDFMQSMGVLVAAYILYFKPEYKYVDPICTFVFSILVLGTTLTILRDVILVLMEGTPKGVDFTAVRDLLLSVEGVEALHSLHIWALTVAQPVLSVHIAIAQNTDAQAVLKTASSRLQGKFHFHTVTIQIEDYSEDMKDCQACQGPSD

B1: mAb20 (antibody, V domains shown)
VH: QIQLVQSGPELKKPGETVKISCKASGYIFTNYPMHWVKQAPGKGLKWMGWINTYSGVPTHADDFKGRFAFSLETSANSAFLQINNLKNEDTATYFCTRSRITPTGGYAMDYWGQGTSVTVSS
VL: DVVMTQTPLSLPVSLGDQASISCRSSQSLVHSNGNTYLHWYLQKPGQSPNLLISKVSNRFSGVPERFSGSGSGTDFTLKISRVEAEDLGVYFCSQNTHVPWTFGGGTKLEIKR
notes: Mouse hybridoma mAb purified on protein A/G; In some assays it was labelled with Alexa Fluor 488 or terbium cryptate; also called monoclonal antibody mAb20; anti-ZnT8 mAb20
B2: mAb39 (antibody, V domains shown)
VH: QVQLQQPGAELVKPGASVKLSCKASGYSFTTYWMHWVKQRPGQGLEWVGDINPRNGRTNYNEKSKSKATLTVDISSSTVYMQVSSLTSEDSAVYYCAIWSGAMDYWGPGTSVTVSS
VL: B1 VL with A19P, R24K, S32N, N50K, S54Y, E65D, N96T, W101P
notes: Mouse hybridoma mAb purified on protein A/G; In some assays it was labelled with Alexa Fluor 555 or d2; also called monoclonal antibody mAb39; anti-ZnT8 mAb39

Columns and labels:
human ZnT8-His = biological target: T1, human ZnT8-His; experiment: ELISA titration on ZnT8-His immobilized on Ni-NTA plate; apparent binding affinity, one-component fit; DDM-solubilized human ZnT8 immobilized to Ni-NTA plate via His-tag; mAb titration
From the text: (§1) FIG. 7A-7D. mAb binding specificities (FIG. 7A) mAb binding to ZnT8-His immobilized to Ni-NTA plate. Bound mAb20 (red) or mAb39 (magenta) was detected by an HRP-conjugated secondary antibody. Solid lines are least-squares fits of binding datapoints to a one-component binding process. Error bars are standard errors (n=8). (FIG. 7B) SDS-denatured mouse ZnT8-His (labeled as M) and human ZnT8-His (labeled as H) on immunoblots were detected by mAb20 or mAb39 as indicated. […] (FIG. 7C) Detection of endogenous human ZnT8 in EndoC-βH cells by mAb20 or […] immunoblotting. An equal amount of EndoC-βH lysate (5 μg total protein) was loaded to each lane. (FIG. 7D) Immunoblotting of HEK lysates with or with over-expression of a ZnT homolog as indicated. An approximately equal amount of total lysate protein (5 μg) was located to each lane, probed by either mAb20, mAb39, or anti-FALG antibody as indicated. FIG. 8. HTRF response to human ZnT8, mouse ZnT8 and human ZnT3.
Binding specificities. […] Of note, the epitope-masking effect of ZnT8 immobilization weakened the apparent binding affinities of both mAbs as compared to the affinities determined by flow-cytometry, and such a weakening effect was more pronounced for mAb39, probably due to a closer proximity of the mAb39 epitope to the C-terminal His-tag. Next, we compared the immunoreactivities of mAbs to denatured ZnT8.

[1] = biological target: T2, human ZnT10 with C-terminal FLAG tag; experiment: immunoblot of HEK293 lysates over-expressing FLAG-tagged ZnT homologs
From the text: as §1
(§2) Immunoblotting. SDS-solubilized cell lysate of EndoC-β cells or HEK293 cells over-expressing ZnT8 was subjected to SDS-PAGE and probed with a 1:3000 mAb20 or mAb39, followed by 1:3000 anti-mouse HRP-conjugated secondary antibody (GE Healthcare cat. #NA931V). A duplicated gel was Coomassie-stained to show an equal protein loading for each lane ([…]). To compare the mAb20 or mAb39 reactivities to different ZnT homolog, we used commercial HEK293 lysates with lentivirus-mediated over-expression of ZnT1, ZnT2, ZnT3, ZnT4, ZnT7, ZnT8, ZnT10, each is tagged by a Flag tag at the C-terminus (Origene, catalog nos. LY500001, LC412033, LC423751, LC401170, LY415673, LC428544, LC406320, and LC412886). Approximately equal amounts of total protein (5 μg) was loaded to each lane, and then probed with mAb20, mAb39, or anti-FLAG antibody (Origene, catalog no. TA50011-100) as above. The expression levels of ZnT homologs varied with ZnT1 most abundantly expressed.

[2] = biological target: T3, human ZnT2 with C-terminal FLAG tag; experiment: as above
From the text: as §1, §2

Row | Binder | Kd (human ZnT8-His) | binding result [1] | binding result [2]
1 | B1 | 2.5 nM | no binding | no binding
2 | B2 | 17.6 nM | no binding | no binding
